In publication PMC7897488:

What was measured:
[1] = target: VcaM4I HNH domain H224A variant (residues 179-309) (Vibrio campbellii); experiment: SEC; Superdex 75 10/300 GL, 15 mM Tris-HCl (pH 8.5), 0.3 M NaCl, 1 mM TCEP; bovine serum albumin, ovalbumin, myoglobin and vitamin B12 as molecular mass standards
[2] = target: VcaM4I Helix-HNH fragment (residues 148-309) (Vibrio campbellii); experiment: as above

Row | stoichiometry N [2] | Substance | stoichiometry N [1]
1 | – | VcaM4I HNH domain H224A variant (residues 179-309) (domain or fragment) | 2
2 | 2 | VcaM4I Helix-HNH fragment (residues 148-309) (domain or fragment) | –
